Changes are numbered by the printed parent chain.
B1: bispecific 2+1 CrossMab 8156 (PD1-0103-0312/TfR(51A165) BBB-format) (bispecific antibody, human IgG1, kappa, L234A L235A)
light 1: EVQLLESGGGLVQPGGSLRLSCAASGFSFSSYTMSWVRQAPGKGLEWVATISGGGRDIYYPDSVKGRFTISRDNSKNTLYLQMNSLRAEDTAVYYCVLLTGRVYFALDSWGQGTLVTVSSASVAAPSVFIFPPSDEQLKSGTASVVCLLNNFYPREAKVQWKVDNALQSGNSQESVTEQDSKDSTYSLSSTLTLSKADYEKHKVYACEVTHQGLSSPVTKSFNRGEC
light 2: QIVLTQSPAIMSASPGEKVTVTCSASSSIRYMHWYQQKPGTSPKRWIYDTSELASGVPARFSGSGSGTSYSLTINSMEAEDAATYYCHQRSSYPFTFGGGTKLEIKRTVAAPSVFIFPPSDRKLKSGTASVVCLLNNFYPREAKVQWKVDNALQSGNSQESVTEQDSKDSTYSLSSTLTLSKADYEKHKVYACEVTHQGLSSPVTKSFNRGEC
heavy 1: DIVMTQSPDSLAVSLGERATINCKASESVDTSDNSFIHWYQQKPGQSPKLLIYRSSTLESGVPDRFSGSGSGTDFTLTISSLQAEDVAVYYCQQNYDVPWTFGQGTKVEIKSSASTKGPSVFPLAPSSKSTSGGTAALGCLVKDYFPEPVTVSWNSGALTSGVHTFPAVLQSSGLYSLSSVVTVPSSSLGTQTYICNVNHKPSNTKVDKKVEPKSCDKTHTCPPCPAPEAAGGPSVFLFPPKPKDTLMISRTPEVTCVVVDVSHEDPEVKFNWYVDGVEVHNAKTKPREEQYNSTYRVVSVLTVLHQDWLNGKEYKCKVSNKALGAPIEKTISKAKGQPREPQVCTLPPSRDELTKNQVSLSCAVKGFYPSDIAVEWESNGQPENNYKTTPPVLDSDGSFFLVSKLTVDKSRWQQGNVFSCSVMHEALHNHYTQKSLSLSPGKGGGGSGGGGSEVQLQQSGPELVKPGASVKMSCKASGYTFTSYVMHWVKQKPGQGLEWIGYVNPYNDDTKYNEKFRGKATLTSDKSSSTAYMELSSLTSEDSAVYYCARSYYYYSMDNWGQGTSVTVSSASTKGPSVFPLAPSSKSTSGGTAALGCLVEDYFPEPVTVSWNSGALTSGVHTFPAVLQSSGLYSLSSVVTVPSSSLGTQTYICNVNHKPSNTKVDEKVEPKSCD
heavy 2: not shown
B2: bispecific 2+1 CrossMab 8157 (PD1-0103-0312/TfR(51A165) TCB-format) (bispecific antibody, human IgG1, kappa, L234A L235A)
light 1: B1 light 1
light 2: B1 light 2
heavy 1: DIVMTQSPDSLAVSLGERATINCKASESVDTSDNSFIHWYQQKPGQSPKLLIYRSSTLESGVPDRFSGSGSGTDFTLTISSLQAEDVAVYYCQQNYDVPWTFGQGTKVEIKSSASTKGPSVFPLAPSSKSTSGGTAALGCLVKDYFPEPVTVSWNSGALTSGVHTFPAVLQSSGLYSLSSVVTVPSSSLGTQTYICNVNHKPSNTKVDKKVEPKSCDGGGGSGGGGSEVQLQQSGPELVKPGASVKMSCKASGYTFTSYVMHWVKQKPGQGLEWIGYVNPYNDDTKYNEKFRGKATLTSDKSSSTAYMELSSLTSEDSAVYYCARSYYYYSMDNWGQGTSVTVSSASTKGPSVFPLAPSSKSTSGGTAALGCLVEDYFPEPVTVSWNSGALTSGVHTFPAVLQSSGLYSLSSVVTVPSSSLGTQTYICNVNHKPSNTKVDEKVEPKSCDKTHTCPPCPAPEAAGGPSVFLFPPKPKDTLMISRTPEVTCVVVDVSHEDPEVKFNWYVDGVEVHNAKTKPREEQYNSTYRVVSVLTVLHQDWLNGKEYKCKVSNKALGAPIEKTISKAKGQPREPQVCTLPPSRDELTKNQVSLSCAVKGFYPSDIAVEWESNGQPENNYKTTPPVLDSDGSFFLVSKLTVDKSRWQQGNVFSCSVMHEALHNHYTQKSLSLSP
heavy 2: not shown
B3: TfR/Nada/anti-Biotin control antibody 9903 (bispecific antibody, human IgG1, kappa, L234A L235A)
heavy 1: not shown
light 1: B1 light 2 with R122E, K123Q
heavy 2: EVQLVESGGGLVQPGGSLRLSCAASGFSIAGTAIHWVRQAPGKGLEWVASISPGGGSTAYADSVKGRFTISADTSKNTAYLQMNSLRAEDTAVYYCSRSGGSGASAMDYWGQGTLVTVSSASVAAPSVFIFPPSDEQLKSGTASVVCLLNNFYPREAKVQWKVDNALQSGNSQESVTEQDSKDSTYSLSSTLTLSKADYEKHKVYACEVTHQGLSSPVTKSFNRGECDKTHTCPPCPAPEAAGGPSVFLFPPKPKDTLMISRTPEVTCVVVDVSHEDPEVKFNWYVDGVEVHNAKTKPREEQYNSTYRVVSVLTVLHQDWLNGKEYKCKVSNKALGAPIEKTISKAKGQPREPQVCTLPPSRDELTKNQVSLSCAVKGFYPSDIAVEWESNGQPENNYKTTPPVLDSDGSFFLVSKLTVDKSRWQQGNVFSCSVMHEALHNHYTQKSLSLSPGKGGGGSGGGGSDIQMTQSPSSLSASVGDRVTITCRASGNIHNYLSWYQQKPGKVPKLLIYSAKTLADGVPSRFSGSGSGTDFTLTISSLQPEDVATYYCQHFWSSIYTFGCGTKLEIKRGGGGSGGGGSGGGGSGGGGSQVQLVQSGAEVKKPGSSVKVSCKSSGFNNKDTFFQWVRQAPGQCLEWMGRIDPANGFTKYAQKFQGRVTITADTSTSTAYMELSSLRSEDTAVYYCARWDTYGAAWFAYWGQGTLVTVSS
light 2: DIQMTQSPSSLSASVGDRVTITCRASQDVGSGVAWYQQKPGKAPKLLIGSASGLYSGVPSRFSGSRSGTDFTLTISSLQPEDFATYYCQQSASGGSTFGQGTKVEIKSSASTKGPSVFPLAPSSKSTSGGTAALGCLVKDYFPEPVTVSWNSGALTSGVHTFPAVLQSSGLYSLSSVVTVPSSSLGTQTYICNVNHKPSNTKVDKKVEPKSC
notes: monovalent for TfR; also called αTfR/Nada; Nada/αTfR
B4: bispecific CrossMab 8017 (Pembrolizumab/1026) (bispecific antibody, human IgG1, kappa, L234A L235A)
heavy 1: QSMQESGPGLVKPSQTLSLTCTVSGFSLSSYAMSWIRQHPGKGLEWIGYIWSGGSTDYASWAKSRVTISKTSTTVSLKLSSVTAADTAVYYCARRYGTSYPDYGDASGFDPWGQGTLVTVSSASTKGPSVFPLAPSSKSTSGGTAALGCLVEDYFPEPVTVSWNSGALTSGVHTFPAVLQSSGLYSLSSVVTVPSSSLGTQTYICNVNHKPSNTKVDEKVEPKSCDKTHTCPPCPAPEAAGGPSVFLFPPKPKDTLMISRTPEVTCVVVDVSHEDPEVKFNWYVDGVEVHNAKTKPREEQYNSTYRVVSVLTVLHQDWLNGKEYKCKVSNKALGAPIEKTISKAKGQPREPQVCTLPPSRDELTKNQVSLSCAVKGFYPSDIAVEWESNGQPENNYKTTPPVLDSDGSFFLVSKLTVDKSRWQQGNVFSCSVMHEALHNHYTQKSLSLSP
light 1: AIQLTQSPSSLSASVGDRVTITCRASQSISSYLAWYQQKPGKAPKLLIYRASTLASGVPSRFSGSGSGTDFTLTISSLQPEDFATYYCQQNYASSNVDNTFGGGTKVEIKRTVAAPSVFIFPPSDRKLKSGTASVVCLLNNFYPREAKVQWKVDNALQSGNSQESVTEQDSKDSTYSLSSTLTLSKADYEKHKVYACEVTHQGLSSPVTKSFNRGEC
heavy 2: not shown
light 2: QVQLVQSGVEVKKPGASVKVSCKASGYTFTNYYMYWVRQAPGQGLEWMGGINPSNGGTNFNEKFKNRVTLTTDSSTTTAYMELKSLQFDDTAVYYCARRDYRFDMGFDYWGQGTTVTVSSASVAAPSVFIFPPSDEQLKSGTASVVCLLNNFYPREAKVQWKVDNALQSGNSQESVTEQDSKDSTYSLSSTLTLSKADYEKHKVYACEVTHQGLSSPVTKSFNRGEC
B5: bispecific CrossMab 8018 (Pembrolizumab/51A165) (bispecific antibody, human IgG1, kappa, L234A L235A)
heavy 1: EVQLQQSGPELVKPGASVKMSCKASGYTFTSYVMHWVKQKPGQGLEWIGYVNPYNDDTKYNEKFRGKATLTSDKSSSTAYMELSSLTSEDSAVYYCARSYYYYSMDNWGQGTSVTVSSASTKGPSVFPLAPSSKSTSGGTAALGCLVEDYFPEPVTVSWNSGALTSGVHTFPAVLQSSGLYSLSSVVTVPSSSLGTQTYICNVNHKPSNTKVDEKVEPKSCDKTHTCPPCPAPEAAGGPSVFLFPPKPKDTLMISRTPEVTCVVVDVSHEDPEVKFNWYVDGVEVHNAKTKPREEQYNSTYRVVSVLTVLHQDWLNGKEYKCKVSNKALGAPIEKTISKAKGQPREPQVCTLPPSRDELTKNQVSLSCAVKGFYPSDIAVEWESNGQPENNYKTTPPVLDSDGSFFLVSKLTVDKSRWQQGNVFSCSVMHEALHNHYTQKSLSLSP
light 1: B1 light 2
heavy 2: not shown
light 2: B4 light 2

Experiments:
[1] = biological target: T1, human PD1 on cells (Jurkat cells expressing human PD1; activated human T cells) (human, UniProt Q15116 25-288); assay: cell-based or functional assay
[2] = biological target: T1, human PD1 on cells (Jurkat cells …); assay: cell-based or functional assay; remark: listed apart in the source
[3] = biological target: T1, human PD1 on cells (Jurkat cells …); assay: cell-based or functional assay; remark: listed apart in the source
[4] = biological target: T2, human TfR on cells (Jurkat cells; activated human T cells) (human, UniProt P02786 1-760); assay: flow cytometry, Jurkat cells (WT, PD-1 low, PD-1 high), 2 h on ice, detection with biotinylated Cy5 (Median APC)
T2 construct: also called Transferrin receptor; CD71

[5] = biological target: T1, human PD1 on cells (Jurkat cells …); assay: cell-based or functional assay; remark: listed apart in the source
[6] = biological target: T1, human PD1 on cells (Jurkat cells …); assay: cell-based or functional assay; remark: listed apart in the source

T1 sequence (Q15116 25-288 limits assumed): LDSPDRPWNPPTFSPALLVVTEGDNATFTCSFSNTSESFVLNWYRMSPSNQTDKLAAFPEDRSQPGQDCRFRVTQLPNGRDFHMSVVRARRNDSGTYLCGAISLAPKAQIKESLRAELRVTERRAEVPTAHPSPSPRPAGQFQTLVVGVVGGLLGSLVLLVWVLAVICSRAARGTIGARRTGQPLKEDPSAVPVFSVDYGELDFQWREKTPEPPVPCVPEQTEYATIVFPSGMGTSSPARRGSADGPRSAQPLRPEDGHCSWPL
T2 sequence (P02786 whole entry): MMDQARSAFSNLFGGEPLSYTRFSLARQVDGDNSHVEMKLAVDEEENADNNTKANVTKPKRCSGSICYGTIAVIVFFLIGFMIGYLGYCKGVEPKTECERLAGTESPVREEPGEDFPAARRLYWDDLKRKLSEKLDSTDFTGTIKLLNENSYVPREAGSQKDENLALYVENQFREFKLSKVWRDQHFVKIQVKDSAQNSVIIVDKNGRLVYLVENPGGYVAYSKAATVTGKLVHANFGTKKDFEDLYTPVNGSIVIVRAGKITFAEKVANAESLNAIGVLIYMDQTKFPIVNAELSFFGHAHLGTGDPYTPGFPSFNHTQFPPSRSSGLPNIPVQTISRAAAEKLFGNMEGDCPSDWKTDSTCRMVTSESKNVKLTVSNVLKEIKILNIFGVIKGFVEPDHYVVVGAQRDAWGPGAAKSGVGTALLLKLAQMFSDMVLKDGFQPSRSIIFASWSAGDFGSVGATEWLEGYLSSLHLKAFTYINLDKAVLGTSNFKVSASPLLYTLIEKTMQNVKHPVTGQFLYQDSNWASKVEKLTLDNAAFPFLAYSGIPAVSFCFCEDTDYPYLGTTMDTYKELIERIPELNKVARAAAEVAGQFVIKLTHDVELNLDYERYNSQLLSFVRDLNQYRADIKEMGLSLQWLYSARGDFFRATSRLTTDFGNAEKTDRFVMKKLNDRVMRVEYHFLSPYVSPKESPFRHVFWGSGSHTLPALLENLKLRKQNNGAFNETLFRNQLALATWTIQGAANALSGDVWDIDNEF

Binder	Fold activity vs. control (EC50 of Granzyme B, mMLR), control PD1-0103-0312 [1]	Fold activity vs. control (EC50 of Granzyme B, mMLR), control 8158 [2]	EC50 (pM) of Granzyme B production, mMLR [3]	Fold activity vs. control (EC50 of Granzyme B, mMLR), control 8159 [2]	binding result [4]	Fold activity vs. control (EC50 of Granzyme B, mMLR), control PD1-0103-312 [5]	Fold activity vs. control (EC50 of Granzyme B, mMLR), control 8019 [6]
B1	7.83 fold vs PD1-0103-0312	4.44 fold vs 8158	25.8 pM				
B2	6.6 fold vs PD1-0103-0312		12 pM	16.3 fold vs 8159			
B3					binds		
B4			121 pM			1.92 fold vs PD1-0103-312	1510 fold vs 8019
B5			139 pM			5.97 fold vs PD1-0103-312	4720 fold vs 8019

Reference: US20250215103A1 (Hoffmann-La Roche, published 2025)
